The target of the experiment is T1, Amylin 3(a) receptor (human calcitonin receptor (CTa) with RAMP-3) (human) (UniProt P30988).
T1 sequence (looked up) 1: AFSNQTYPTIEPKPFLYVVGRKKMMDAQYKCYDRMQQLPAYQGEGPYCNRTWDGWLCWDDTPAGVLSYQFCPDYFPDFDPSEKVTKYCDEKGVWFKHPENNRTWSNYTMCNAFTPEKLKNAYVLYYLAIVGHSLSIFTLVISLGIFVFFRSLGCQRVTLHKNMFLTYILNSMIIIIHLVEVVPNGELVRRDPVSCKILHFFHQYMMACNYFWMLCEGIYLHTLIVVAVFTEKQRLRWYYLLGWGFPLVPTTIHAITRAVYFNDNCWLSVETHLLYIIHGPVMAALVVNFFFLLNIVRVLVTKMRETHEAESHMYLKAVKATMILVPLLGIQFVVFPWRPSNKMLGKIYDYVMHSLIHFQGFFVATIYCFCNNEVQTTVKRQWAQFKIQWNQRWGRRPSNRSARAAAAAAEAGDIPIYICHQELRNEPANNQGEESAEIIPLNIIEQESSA
T1 sequence (looked up) 2: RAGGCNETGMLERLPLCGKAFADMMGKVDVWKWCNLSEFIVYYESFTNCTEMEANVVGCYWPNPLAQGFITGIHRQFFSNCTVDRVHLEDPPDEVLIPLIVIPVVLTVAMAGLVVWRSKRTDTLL
The experiment can be described thus: cell-based or functional assay.

*1 amine or outer side, *2 acyl side, *3 side chain or, on linkers, in order; H or OH if unused. Bridges are numbered along the chain shown (N, C = ends). The star is where a group is joined. C20 diacid = O=C(O)CCCCCCCCCCCCCCCCCCC(=O)*; γGlu = O=C(O)[C@H](CCC(=O)[*:2])N[*:1]

B1: N-alpha-[(S)-4-Carboxy-4-(19-carboxynonadecanoylamino)butyryl]-Glu-His-Arg-[His1,His17]-pramlintide (peptide)
peptide: {C20 diacid-γGlu}-EHRHCNTATCATQRLANFLHHSSNNFGPILPPTNVGSNTY-NH2
modifications: disulfide 5-10
SMILES: CC[C@H](C)[C@H](NC(=O)[C@@H]1CCCN1C(=O)CNC(=O)[C@H](Cc1ccccc1)NC(=O)[C@H](CC(N)=O)NC(=O)[C@H](CC(N)=O)NC(=O)[C@H](CO)NC(=O)[C@H](CO)NC(=O)[C@H](Cc1c[nH]cn1)NC(=O)[C@H](Cc1c[nH]cn1)NC(=O)[C@H](CC(C)C)NC(=O)[C@H](Cc1ccccc1)NC(=O)[C@H](CC(N)=O)NC(=O)[C@H](C)NC(=O)[C@H](CC(C)C)NC(=O)[C@H](CCCNC(=N)N)NC(=O)[C@H](CCC(N)=O)NC(=O)[C@@H](NC(=O)[C@H](C)NC(=O)[C@@H]1CSSC[C@H](NC(=O)[C@H](Cc2c[nH]cn2)NC(=O)[C@H](CCCNC(=N)N)NC(=O)[C@H](Cc2c[nH]cn2)NC(=O)[C@H](CCC(=O)O)NC(=O)CC[C@H](NC(=O)CCCCCCCCCCCCCCCCCCC(=O)O)C(=O)O)C(=O)N[C@@H](CC(N)=O)C(=O)N[C@@H]([C@@H](C)O)C(=O)N[C@@H](C)C(=O)N[C@@H]([C@@H](C)O)C(=O)N1)[C@@H](C)O)C(=O)N[C@@H](CC(C)C)C(=O)N1CCC[C@H]1C(=O)N1CCC[C@H]1C(=O)N[C@H](C(=O)N[C@@H](CC(N)=O)C(=O)N[C@H](C(=O)NCC(=O)N[C@@H](CO)C(=O)N[C@@H](CC(N)=O)C(=O)N[C@H](C(=O)N[C@@H](Cc1ccc(O)cc1)C(N)=O)[C@@H](C)O)C(C)C)[C@@H](C)O
Regarding B1, the Potency Luciferase amounted to 100 pM.

B2: N-alpha-[(S)-4-Carboxy-4-(19-carboxynonadecanoylamino)butyryl]-GluHis-His-[Arg1,His17,Gln21]-pramlintide (peptide)
peptide: {C20 diacid-γGlu}-EHHRCNTATCATQRLANFLHHSSQNFGPILPPTNVGSNTY-NH2
modifications: disulfide 5-10
SMILES: CC[C@H](C)[C@H](NC(=O)[C@@H]1CCCN1C(=O)CNC(=O)[C@H](Cc1ccccc1)NC(=O)[C@H](CC(N)=O)NC(=O)[C@H](CCC(N)=O)NC(=O)[C@H](CO)NC(=O)[C@H](CO)NC(=O)[C@H](Cc1c[nH]cn1)NC(=O)[C@H](Cc1c[nH]cn1)NC(=O)[C@H](CC(C)C)NC(=O)[C@H](Cc1ccccc1)NC(=O)[C@H](CC(N)=O)NC(=O)[C@H](C)NC(=O)[C@H](CC(C)C)NC(=O)[C@H](CCCNC(=N)N)NC(=O)[C@H](CCC(N)=O)NC(=O)[C@@H](NC(=O)[C@H](C)NC(=O)[C@@H]1CSSC[C@H](NC(=O)[C@H](CCCNC(=N)N)NC(=O)[C@H](Cc2c[nH]cn2)NC(=O)[C@H](Cc2c[nH]cn2)NC(=O)[C@H](CCC(=O)O)NC(=O)CC[C@H](NC(=O)CCCCCCCCCCCCCCCCCCC(=O)O)C(=O)O)C(=O)N[C@@H](CC(N)=O)C(=O)N[C@@H]([C@@H](C)O)C(=O)N[C@@H](C)C(=O)N[C@@H]([C@@H](C)O)C(=O)N1)[C@@H](C)O)C(=O)N[C@@H](CC(C)C)C(=O)N1CCC[C@H]1C(=O)N1CCC[C@H]1C(=O)N[C@H](C(=O)N[C@@H](CC(N)=O)C(=O)N[C@H](C(=O)NCC(=O)N[C@@H](CO)C(=O)N[C@@H](CC(N)=O)C(=O)N[C@H](C(=O)N[C@@H](Cc1ccc(O)cc1)C(N)=O)[C@@H](C)O)C(C)C)[C@@H](C)O
Consider B2, for which the Potency Luciferase came out at 100 pM.

B3: N-alpha-[(S)-4-Carboxy-4-(19-carboxynonadecanoylamino)butyryl]-Glu-His-His-[Arg1,His17]-pramlintide (peptide)
peptide: {C20 diacid-γGlu}-EHHRCNTATCATQRLANFLHHSSNNFGPILPPTNVGSNTY-NH2
modifications: disulfide 5-10
SMILES: CC[C@H](C)[C@H](NC(=O)[C@@H]1CCCN1C(=O)CNC(=O)[C@H](Cc1ccccc1)NC(=O)[C@H](CC(N)=O)NC(=O)[C@H](CC(N)=O)NC(=O)[C@H](CO)NC(=O)[C@H](CO)NC(=O)[C@H](Cc1c[nH]cn1)NC(=O)[C@H](Cc1c[nH]cn1)NC(=O)[C@H](CC(C)C)NC(=O)[C@H](Cc1ccccc1)NC(=O)[C@H](CC(N)=O)NC(=O)[C@H](C)NC(=O)[C@H](CC(C)C)NC(=O)[C@H](CCCNC(=N)N)NC(=O)[C@H](CCC(N)=O)NC(=O)[C@@H](NC(=O)[C@H](C)NC(=O)[C@@H]1CSSC[C@H](NC(=O)[C@H](CCCNC(=N)N)NC(=O)[C@H](Cc2c[nH]cn2)NC(=O)[C@H](Cc2c[nH]cn2)NC(=O)[C@H](CCC(=O)O)NC(=O)CC[C@H](NC(=O)CCCCCCCCCCCCCCCCCCC(=O)O)C(=O)O)C(=O)N[C@@H](CC(N)=O)C(=O)N[C@@H]([C@@H](C)O)C(=O)N[C@@H](C)C(=O)N[C@@H]([C@@H](C)O)C(=O)N1)[C@@H](C)O)C(=O)N[C@@H](CC(C)C)C(=O)N1CCC[C@H]1C(=O)N1CCC[C@H]1C(=O)N[C@H](C(=O)N[C@@H](CC(N)=O)C(=O)N[C@H](C(=O)NCC(=O)N[C@@H](CO)C(=O)N[C@@H](CC(N)=O)C(=O)N[C@H](C(=O)N[C@@H](Cc1ccc(O)cc1)C(N)=O)[C@@H](C)O)C(C)C)[C@@H](C)O
Consider B3, for which the Potency Luciferase worked out at 100 pM.

B4: N-alpha-[(S)-4-Carboxy-4-(19-carboxynonadecanoylamino)butyryl]-Glu-His-His-[Arg1,Arg17,Gln21]-pramlintide (peptide)
peptide: {C20 diacid-γGlu}-EHHRCNTATCATQRLANFLRHSSQNFGPILPPTNVGSNTY-NH2
modifications: disulfide 5-10
SMILES: CC[C@H](C)[C@H](NC(=O)[C@@H]1CCCN1C(=O)CNC(=O)[C@H](Cc1ccccc1)NC(=O)[C@H](CC(N)=O)NC(=O)[C@H](CCC(N)=O)NC(=O)[C@H](CO)NC(=O)[C@H](CO)NC(=O)[C@H](Cc1c[nH]cn1)NC(=O)[C@H](CCCNC(=N)N)NC(=O)[C@H](CC(C)C)NC(=O)[C@H](Cc1ccccc1)NC(=O)[C@H](CC(N)=O)NC(=O)[C@H](C)NC(=O)[C@H](CC(C)C)NC(=O)[C@H](CCCNC(=N)N)NC(=O)[C@H](CCC(N)=O)NC(=O)[C@@H](NC(=O)[C@H](C)NC(=O)[C@@H]1CSSC[C@H](NC(=O)[C@H](CCCNC(=N)N)NC(=O)[C@H](Cc2c[nH]cn2)NC(=O)[C@H](Cc2c[nH]cn2)NC(=O)[C@H](CCC(=O)O)NC(=O)CC[C@H](NC(=O)CCCCCCCCCCCCCCCCCCC(=O)O)C(=O)O)C(=O)N[C@@H](CC(N)=O)C(=O)N[C@@H]([C@@H](C)O)C(=O)N[C@@H](C)C(=O)N[C@@H]([C@@H](C)O)C(=O)N1)[C@@H](C)O)C(=O)N[C@@H](CC(C)C)C(=O)N1CCC[C@H]1C(=O)N1CCC[C@H]1C(=O)N[C@H](C(=O)N[C@@H](CC(N)=O)C(=O)N[C@H](C(=O)NCC(=O)N[C@@H](CO)C(=O)N[C@@H](CC(N)=O)C(=O)N[C@H](C(=O)N[C@@H](Cc1ccc(O)cc1)C(N)=O)[C@@H](C)O)C(C)C)[C@@H](C)O
In the case of B4, the Potency Luciferase worked out at 100 pM.

For the origin of these results see patent US20110105394A1 (Novo Nordisk, published 2011).
